Experimental findings from patent publication US20110243972A1 (Johns Hopkins, published 2011) are described below.

In assay [1] the target is T1, HLA-A2 on T2 cells (HLA-A*0201) (human).
T1 construct: Class I molecule on the T2 cell surface, stabilised by peptide; Detected with mAb W6/32; also called T2-A2
The experiment in a line: T2 stabilisation assay, flow cytometry with W6/32. From the text:
(§1) T2 cells were pulsed with 225 micrograms of peptide per ml overnight at room temperature before analysis by flow cytometry. T2 cells expressing HLA-A2 (A) or HLA-A24 (C) were stained with an unlabeled mouse anti-HLA class I molecule monoclonal antibody W6/32 and a goat-anti-mouse FITC-labeled IgG2a secondary antibody. T2 cells genetically modified to express A3 (B) were stained with an unlabeled mouse anti-human HLA-A3 specific monoclonal antibody GAPA3 and a FITC-labeled IgG2a secondary antibody.
(§2) Materials and Methods. Peptide/MHC binding Assays. T2 cells expressing the HLA molecule of interest were resuspended in AimV serum free media (Gibco, Grand Island, N.Y.) to a concentration of 1×10⁶ cells/ml and pulsed with 3 μg/ml beta-2 microglobulin (β₂-M) (Sigma, St. Louis, Mo.) plus peptide at 0-225 μg/ml of peptide at room temperature overnight. The cells were washed and resuspended at 2×10⁵ cells/ml. The level of stabilized MHC on the cell surface of the T2 and T2-A24 cells were analyzed by direct staining of cell samples with unlabeled anti-class I mAb W6/32 and a FITC-labeled goat-anti-mouse IgG2a secondary antibody.
(In general: Flow cytometry measures light scatter and fluorescence of single cells or particles in a stream.)

Assay [2] concerns the target T2, HLA-A3 on T2-A3 cells (HLA-A*0301) (human).
T2 construct: Detected with the anti-HLA-A3 mAb GAPA3
The experiment in a line: T2-A3 stabilisation assay, flow cytometry with GAPA3.
Excerpt: as §1, §2

Regarding EIDESLIFY [Mesothelin A1 (309-317) peptide (EIDESLIFY)], the binding result in assay [1] and in assay [2] was “no binding (tested: 225 micrograms of peptide per ml)” throughout.
